Where two headings read alike, the source gives them in different places. Non-standard residues stand in square brackets, D forms with d. Primed or numbered codes have the meaning given here. azaGly′ = aza-glycine residue at the C-terminus, with NH2; Bpa = N[C@@H](Cc1ccc(C(=O)c2ccccc2)cc1)C(=O)O; d2Nal = N[C@H](Cc1ccc2ccccc2c1)C(=O)O; DO3A10CM = not defined here; Bpa4 = non-natural residue; Damfe4 = not defined here; Ahgly = not defined here; Amfe4 = not defined here; Ampc4 = not defined here; Hypt4 = not defined here; Mogly = not defined here; Ppt4 = not defined here; azaGly = NNC(=O)O; Sar = CNCC(=O)O
Assays:
[1] = test system: EFO-27 cells; assay: Internalization/efflux studies in EFO-27 cells; assay type: cell-based, human; details: for Cell associated activity at 0 h % Intern / Cell associated activity at 2 h % Intern: internalized; for Cell associated activity at 0 h % Memb / Cell associated activity at 2 h % Memb: membrane bound; for Bound %: of added; for Bound: per well
Description: Internalization/Efflux Studies: The internalization and efflux studies were carried out following the general procedure. Basically, ^177Lu-LHRH II or ^125I-LHRH II ([^125I-Tyr^8]BRU-2477) (75 uL, 3.0 μCi/mL) was added to the EFO-27 or PC-3 cells. The cells were incubated for 40 min at 37° C. The unbound radioactivity was washed off (4×). Following addition of fresh medium, the cells were further incubated for up to 2 h. At various time points (15, 30, 60 & 120 min) the distribution of radioactivity (membrane-bound, internalized, and efflux) was determined
The internalization and efflux of several Lu-177 labeled LHRH II analogs in EFO-27 cells have been investigated. Basically, following pre-incubation of cells with ^177Lu-LHRH II samples, the binding buffer containing the ^177Lu was replaced with fresh media without complex. The extent of initial internalization (T=0), the amount of radioactive material that remained internalized and the efflux at 0-120 min were determined. The results are shown in FIGS. 21a-f and 22a-c and in Table 25.

[2] = test system: LHRH binding sites on human ovarian cancer cells (EFO-27);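 note: Cell-associated radioactivity on confluent EFO-27 monolayers in 96-well plates, measured by microplate scintillation counting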
[3] = biological target: LHRH receptor (LHRH binding sites) on EFO-27 human ovarian cancer cells (human); assay: competition with [125I-Tyr8]BRU-2477 for binding to EFO-27 cells
[4] = biological target: LHRH receptor (LHRH binding sites) on EFO-27 human ovarian cancer cells (human); assay: competition with [125I-Tyr8]BRU-2477, EFO-27 cells
[5] = biological target: LHRH binding sites on EFO-27 human ovarian cancer cells (human); assay: competition with [125I-Tyr8]BRU-2477 on EFO-27 cells

Molecule | EC50 [4] | EC50 [5] | further results
N=C(N)NCCC[C@H](NC(=O)[C@@H](Cc1ccc2ccccc2c1)NC(=O)CN1CCN(CC(=O)O)CCN(CC(=O)O)CCN(CC(=O)O)CC1)C(=O)N[C@@H](Cc1c[nH]c2ccccc12)C(=O)N[C@@H](CO)C(=O)N[C@@H](Cc1c[nH]cn1)C(=O)N[C@H](CCCNC(=N)N)C(=O)N[C@@H](Cc1c[nH]c2ccccc12)C(=O)N[C@@H](Cc1ccc(C(=O)c2ccccc2)cc1)C(=O)N1CCC[C@H]1C(=O)NCCOCCN [BRU-2968, DO3A10CM-Dna12-Arg-Trp-Ser-His-Darg-Trp-Bpa4-Pro-Da15o3pt] | – | – | Cell associated activity at 0 h % Efflux [1]: 4.9%; Cell associated activity at 0 h % Intern [1]: 14.1%; Cell associated activity at 0 h % Memb [1]: 80.8%; Cell associated activity at 2 h % Efflux [1]: 52.9%; Cell associated activity at 2 h % Intern [1]: 9.0%; Cell associated activity at 2 h % Memb [1]: 38.1%; Bound % [1]: 23.59%; Bound [1]: 68.8 fmol; EC50 [2]: 240 nM
N=C(N)NCCC[C@@H](NC(=O)[C@H](Cc1c[nH]cn1)NC(=O)[C@H](CO)NC(=O)[C@H](Cc1c[nH]c2ccccc12)NC(=O)[C@H](Cc1c[nH]cn1)NC(=O)[C@@H](Cc1ccc2ccccc2c1)NC(=O)CN1CCN(CC(=O)O)CCN(CC(=O)O)CCN(CC(=O)O)CC1)C(=O)N[C@@H](Cc1c[nH]c2ccccc12)C(=O)N[C@@H](Cc1ccc(C(=O)c2ccccc2)cc1)C(=O)N1CCC[C@H]1C(=O)NNC(N)=O [BRU-2666] | – | – | Cell associated activity at 0 h % Efflux [1]: 5.5%; Cell associated activity at 0 h % Intern [1]: 43.6%; Cell associated activity at 0 h % Memb [1]: 50.3%; Cell associated activity at 2 h % Efflux [1]: 80.6%; Cell associated activity at 2 h % Intern [1]: 10.0%; Cell associated activity at 2 h % Memb [1]: 9.5%; Bound % [1]: 12.20%; Bound [1]: 25.0 fmol; EC50 [2]: 470 nM; times more potent than the comparator analog ([2]; BRU-2441 vs BRU-2439, BRU-2666 vs Sar1 analog, BRU-3072 vs Pro9 analog): 2
BRU-2756: DO3A10CM LHRH-II analog prepared in house for Lu labeling (DO3A10CM-[Sar][Amfe4]WSH[dR]W[Bpa4]P[azaGly]-NH2; reading uncertain) | – | – | Cell associated activity at 0 h % Efflux [1]: 7.7%; Cell associated activity at 0 h % Intern [1]: 42.0%; Cell associated activity at 0 h % Memb [1]: 51.5%; Cell associated activity at 2 h % Efflux [1]: 82.5%; Cell associated activity at 2 h % Intern [1]: 9.9%; Cell associated activity at 2 h % Memb [1]: 7.4%; Bound % [1]: 5.10%; Bound [1]: 10.2 fmol; EC50 ([2]; Table 5: modifications of amino acids at positions 1 and 2, in vitro binding on EFO-27 cells): 280 nM
DO3A10CM-Adoa-Sar-His-Trp-Ser-His-Darg-Trp-Bpa4-Pro-azaGly-NH2 (Seq111) (peptide) | – | – | EC50 [3]: 3300 nM
XRWSHXWXPX (DO3A10CM on N-terminus; AA1 Dbpa4; AA6 Darg; AA8 Bpa4; AA10 azaGly-NH2) [BRU-3071] | 310 nM | 310 nM | –
GHWSHXWXPX (as printed: DO3A10CM-Gly-His-Trp-Ser-His-Darg-Trp-Bpa4-Pro-azaGly-NH2 (Gly is AA1)) [BRU-2733] | – | – | EC50 [3]: 1180 nM
XRWSXXWXPX (DO3A10CM on N-terminus; AA1 Dnal2; AA5 Orn; AA6 Darg; AA8 Bpa4; AA10 azaGly-NH2) [BRU-2961] | 350 nM | 350 nM | –
XRXSHXWXPX (DO3A10CM on N-terminus; AA1 Dnal2; AA3 Nal1; AA6 Darg; AA8 Bpa4; AA10 azaGly-NH2) [BRU-3104] | 250 nM | 250 nM | –
DO3A10CM-[d2Nal]RWSH[dR]W[Bpa4][Ppt4][azaGly]-NH2 (reading uncertain) [BRU-2953] | 830 nM | 650 nM | factor of reduced binding against BRU-2813 [5]: 2 fold
XRWSHXWXPX (DO3A10CM on N-terminus; AA1 Datdc2; AA6 Darg; AA8 Bpa4; AA10 azaGly-NH2) [BRU-3063] | 470 nM | 470 nM | –
XXHWSHXWXPX (as printed: DO3A10CM-Ambz4-Sar-His-Trp-Ser-His-Darg-Trp-Bpa4-Pro-azaGly-NH2 (Ambz4 is the linker)) [BRU-2727] | – | – | EC50 [3]: 650 nM
DO3A10CM-G[Mogly]HWSH[dR]W[Bpa]P[azaGly]-NH2 (reading uncertain) [BRU-2796] | 340 nM | 340 nM | –
XHWSHXWXPX (as printed: DO3A10CM-Adoa-Adoa-Sar-His-Trp-Ser-His-Darg-Trp-Bpa4-Pro-azaGly-NH2 (Adoa-Adoa is the linker)) [BRU-2896] | – | – | EC50 [3]: 3200 nM
XHWSHXWXPX (AA1 Mephe; AA6 Darg; AA8 Bpa4; AA10 azaGly-NH2) [BRU-2734] | 150 nM | 150 nM | –
XRXSHXWXPX (DO3A10CM on N-terminus; AA1 Dnal2; AA3 Amfe4; AA6 Darg; AA8 Bpa4; AA10 azaGly-NH2) [BRU-3107] | 380 nM | 380 nM | –
DO3A10CM-[Damfe4][Damfe4]WSH[dR]W[Bpa]P[azaGly]-NH2 (reading uncertain) [BRU-3095] | 290 nM | 290 nM | –
GXRWSHXWXPX (DO3A10CM-Gly (linker) on N-terminus; AA1 Dtpi; AA6 Darg; AA8 Bpa4; AA10 azaGly-NH2) [BRU-3068] | 240 nM | 240 nM | –
XRWSHXWXPX (DO3A10CM on N-terminus; AA1 Ampha4; AA6 Darg; AA8 Bpa4; AA10 azaGly-NH2) [BRU-3094] | 350 nM | 350 nM | –
GXRWSHXWXPX (DO3A10CM-Gly (linker) on N-terminus; AA1 Tpi; AA6 Darg; AA8 Bpa4; AA10 azaGly-NH2) [BRU-3053] | 320 nM | 320 nM | –
DO3A10CM-G[Ahgly]HWSH[dR]W[Bpa]P[azaGly]-NH2 (not fully specified; reading uncertain) [BRU-2876] | 500 nM | 500 nM | –

Molecule | EC50 [4] | EC50 [5] | further results
DO3A10CM-[d2Nal]RWSH[dR]W[Bpa][Ampc4][azaGly′]-NH2 (reading uncertain) [BRU-3062] | 320 nM | 320 nM | –
XXWSHXWXPX (DO3A10CM on N-terminus; AA1 Dnal2; AA2 Darg; AA6 Darg; AA8 Bpa4; AA10 azaGly-NH2) [BRU-3049] | 360 nM | 360 nM | –
XRWSHXWXPX (DO3A10CM on N-terminus; AA1 Thy; AA6 Darg; AA8 Bpa4; AA10 azaGly-NH2) [BRU-3069] | 380 nM | 380 nM | –
XRWSXXWXPX (DO3A10CM on N-terminus; AA1 Dnal2; AA5 Fur3ala; AA6 Darg; AA8 Bpa4; AA10 azaGly-NH2) [BRU-2960] | 400 nM | 400 nM | –
XRWSHXWXP (DO3A10CM on N-terminus; AA1 Dnal2; AA6 Darg; AA8 Bpa4; AA10 Az23m2po-NH2) [BRU-3021] | 500 nM | 500 nM | –
XRWSHXWXPX (DO3A10CM on N-terminus; AA1 Dtyr; AA6 Darg; AA8 Bpa4; AA10 azaGly-NH2) [BRU-3054] | 430 nM | 430 nM | –
XRWSHXWXPX (DO3A10CM on N-terminus; AA1 Qua3; AA6 Darg; AA8 Bpa4; AA10 azaGly-NH2) [BRU-3057] | 380 nM | 380 nM | –
XRWXHXWXPX (DO3A10CM on N-terminus; AA1 Dnal2; AA4 Amfe4; AA6 Darg; AA8 Bpa4; AA10 azaGly-NH2) [BRU-3115] | 150 nM | 150 nM | –
XRWSHXWXP (AA1 Sar; AA6 Darg; AA8 Bpa4; AA10 Da15o3pt) [BRU-3007] | 220 nM | 220 nM | –
XRWSRXWXPX (DO3A10CM on N-terminus; AA1 Dnal2; AA6 Darg; AA8 Bpa4; AA10 azaGly-NH2) [BRU-2959] | 250 nM | 250 nM | –
DO3A10CM-[d2Nal]RWSH[dR]W[Bpa4][Hypt4][azaGly]-NH2 (reading uncertain) [BRU-2952] | 280 nM | 280 nM | –
GGHWSHXWXPX (as printed: DO3A10CM-Gly-Gly-His-Trp-Ser-His-Darg-Trp-Bpa4-Pro-azaGly-NH2 (first Gly is the linker)) [BRU-2795] | – | – | EC50 [3]: 1370 nM
XRXSHXWXPX (DO3A10CM on N-terminus; AA1 Dnal2; AA3 Nal2; AA6 Darg; AA8 Bpa4; AA10 azaGly-NH2) [BRU-3105] | 220 nM | 220 nM | –
XRWSHXWXPX (DO3A10CM on N-terminus; AA1 Atdc2; AA6 Darg; AA8 Bpa4; AA10 azaGly-NH2) [BRU-3055] | 390 nM | 390 nM | –
XRWSHXWXPX (DO3A10CM on N-terminus; AA1 Bip; AA6 Darg; AA8 Bpa4; AA10 azaGly-NH2) [BRU-3070] | 280 nM | 280 nM | –
XRWXHXWXPX (DO3A10CM on N-terminus; AA1 Dnal2; AA4 Dpr (Dap in Table 26); AA6 Darg; AA8 Bpa4; AA10 azaGly-NH2) [BRU-2955] | 410 nM | 410 nM | –
XHWSHXWYPX (HELM PEPTIDE1{[Sar].H.W.S.H.[dR].W.Y.P.[O=C(NN[*:1])[*:2]].[am]}$$$$V2.0; N-terminus assumed; SMILES CNCC(=O)N[C@@H](Cc1c[nH]cn1)C(=O)N[C@@H](Cc1c[nH]c2ccccc12)C(=O)N[C@@H](CO)C(=O)N[C@@H](Cc1c[nH]cn1)C(=O)N[C@H](CCCNC(=N)N)C(=O)N[C@@H](Cc1c[nH]c2ccccc12)C(=O)N[C@@H](Cc1ccc(O)cc1)C(=O)N1CCC[C@H]1C(=O)NNC(N)=O) [BRU-2439] | 250 nM | 250 nM | –
XRWSHXWXPX (DO3A10CM on N-terminus; AA1 Apsp; AA6 Darg; AA8 Bpa4; AA10 azaGly-NH2) [BRU-3056] | 440 nM | 440 nM | –
XRWSHXWXP (DO3A10CM on N-terminus; AA1 Dnal2; AA6 Darg; AA8 Bpa4; AA10 Mo2abn) [BRU-3020] | 450 nM | 450 nM | –

From patent US20120045393A1 (priority 2009, published 2012)
